Measurements: patent publication US20250339558A1

Target: CD20 (UniProt P11836)
Assay: cell-based or functional assay

Chain of UniProt P11836 (P11836 whole entry): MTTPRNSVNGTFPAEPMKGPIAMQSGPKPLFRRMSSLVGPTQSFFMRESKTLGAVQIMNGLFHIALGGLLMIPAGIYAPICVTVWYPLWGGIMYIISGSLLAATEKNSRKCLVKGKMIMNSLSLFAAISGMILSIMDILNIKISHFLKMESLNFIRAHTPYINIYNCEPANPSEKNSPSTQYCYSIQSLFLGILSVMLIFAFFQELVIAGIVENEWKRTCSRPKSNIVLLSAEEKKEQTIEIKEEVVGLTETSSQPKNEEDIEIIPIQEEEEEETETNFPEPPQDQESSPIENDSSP

Q: For Rituximab (antibody), which CDC Depletion Efficiency (complement-dependent cytotoxicity killing) is on record?
A: 60%
